From patent US20210024651A1

What was measured:
moFcgRIV [1] = assay: BLI
moFcRn [2] = assay: BLI
moFcgRIII = assay: -; reported
moFcgRIV [3] = assay: -; reported
moFcRn [4] = assay: -; reported
moFcgRIIb = assay: -; reported

| Substance | Kd (moFcgRIV [1]) [nM] | Kd (moFcRn [2]) [nM] | Kd (moFcgRIII) [nM] | Kd (moFcgRIV [3]) [nM] | Kd (moFcRn [4]) [nM] | Kd (moFcgRIIb) [nM] |
| --- | --- | --- | --- | --- | --- | --- |
| LJM716 hIgG1 | 701 | 12.8 |  |  |  |  |
| Seribantumab hIgG2 |  | 6.69 |  |  |  |  |
| mIgG1 |  |  | 3200 |  | 1160 | 301 |
| mIgG2b |  |  | 1560 | 59 | 545 | 448 |

Next, values leading:

| Kd (moFcgRIV [1]) [nM] | Kd (moFcRn [2]) [nM] | Kd (moFcgRIII) [nM] | Kd (moFcgRIV [3]) [nM] | Kd (moFcRn [4]) [nM] | Kd (moFcgRIIb) [nM] | Substance |
| --- | --- | --- | --- | --- | --- | --- |
|  |  | 9300 | 280 | 72 | 1100 | hIgG1 |
|  |  | 9700 |  | 63 | 7900 | hIgG2 |
|  |  | 1300 | 170 | 230 | 700 | hIgG3 |
|  |  | 21000 | 26000 | 116 | 11000 | hIgG4 |
|  |  | 1460 | 34.5 | 490 | 2390 | mIgG2a |
|  |  |  |  | 140 |  | mIgG3 |
